First the molecules themselves.
T1: recombinant human IL-23 (hrIL-23), produced at Centocor (human, UniProt P29460 23-328)
T1 sequence 1: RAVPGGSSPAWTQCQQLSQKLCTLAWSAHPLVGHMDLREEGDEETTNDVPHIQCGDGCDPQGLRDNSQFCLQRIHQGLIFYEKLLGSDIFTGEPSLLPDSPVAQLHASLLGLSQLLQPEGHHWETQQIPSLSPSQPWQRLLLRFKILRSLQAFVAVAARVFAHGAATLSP
T1 sequence 2: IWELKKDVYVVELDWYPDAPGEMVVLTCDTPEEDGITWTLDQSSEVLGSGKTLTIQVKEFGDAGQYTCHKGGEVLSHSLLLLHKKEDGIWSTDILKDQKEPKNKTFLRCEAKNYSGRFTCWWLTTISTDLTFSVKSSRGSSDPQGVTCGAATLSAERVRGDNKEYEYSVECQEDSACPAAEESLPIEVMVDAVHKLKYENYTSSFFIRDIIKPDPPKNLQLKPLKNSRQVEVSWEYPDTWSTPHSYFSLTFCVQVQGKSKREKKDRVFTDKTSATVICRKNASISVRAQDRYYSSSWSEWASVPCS

T2: recombinant human IL-12 (hrIL-12), produced at Centocor (human, UniProt P29459 23-219; P29460 23-328)
T2 construct: p35-p40 heterodimer; also called hIL-12; IL-12 CNTO
T2 sequence (looked up) 1: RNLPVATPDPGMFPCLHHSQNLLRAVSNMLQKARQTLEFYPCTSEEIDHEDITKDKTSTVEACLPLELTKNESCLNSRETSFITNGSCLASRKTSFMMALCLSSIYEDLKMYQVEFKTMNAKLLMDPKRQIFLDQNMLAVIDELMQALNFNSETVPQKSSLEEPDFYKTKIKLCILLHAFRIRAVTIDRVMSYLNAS
T2 sequence (looked up) 2: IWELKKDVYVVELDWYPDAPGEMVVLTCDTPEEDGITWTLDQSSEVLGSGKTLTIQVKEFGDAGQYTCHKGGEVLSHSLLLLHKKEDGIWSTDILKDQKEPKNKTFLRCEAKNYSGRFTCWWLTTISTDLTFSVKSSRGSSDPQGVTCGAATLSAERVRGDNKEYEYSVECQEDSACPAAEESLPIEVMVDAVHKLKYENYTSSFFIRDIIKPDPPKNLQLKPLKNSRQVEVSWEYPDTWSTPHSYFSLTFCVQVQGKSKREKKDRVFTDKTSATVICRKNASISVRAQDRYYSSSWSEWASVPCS

T3: IL-12 (R&D) (UniProt P29459 23-219; P29460 23-328)
T3 construct: bought from R&D Systems; also called R&D IL-12
T3 sequence (looked up) 1: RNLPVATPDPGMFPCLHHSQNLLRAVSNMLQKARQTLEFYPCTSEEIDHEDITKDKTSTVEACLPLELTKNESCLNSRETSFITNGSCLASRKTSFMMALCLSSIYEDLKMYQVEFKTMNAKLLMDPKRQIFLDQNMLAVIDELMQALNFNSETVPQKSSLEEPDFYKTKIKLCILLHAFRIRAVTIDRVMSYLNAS
T3 sequence (looked up) 2: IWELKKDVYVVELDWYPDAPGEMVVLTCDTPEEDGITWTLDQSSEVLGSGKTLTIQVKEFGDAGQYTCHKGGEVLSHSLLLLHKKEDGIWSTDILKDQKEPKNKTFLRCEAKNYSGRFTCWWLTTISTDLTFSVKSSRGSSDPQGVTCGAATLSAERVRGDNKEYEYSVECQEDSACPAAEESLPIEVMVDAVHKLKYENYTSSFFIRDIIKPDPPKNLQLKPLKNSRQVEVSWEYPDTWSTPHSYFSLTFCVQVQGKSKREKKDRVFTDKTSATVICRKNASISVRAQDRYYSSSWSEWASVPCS

B1: mAb MOR05063 (antibody, IgG1, V domains shown)
VH: QVELVESGGGLVQPGGSLRLSCAASGFTFSSFGMSWVRQAPGKGLEWVSNISSSGSSTYYADSVKGRFTISRDNSKNTLYLQMNSLRAEDTAVYYCARYWGTPYLMQFDNWGQGTLVTVSS
VL: DIALTQPASVSGSPGQSITISCTGTSSDVGGYNSVSWYQQHPGKAPKLMIYSVSSRPSGVSNRFSGSKSGNTASLTISGLQAEDEADYYCSDVFGGGTKLTVL
B2: mAb MOR05062 (antibody, IgG1, V domains shown)
VH: QVELVESGGGLVQPGGSLRLSCAASGFTFSSFGMSWVRQAPGKGLEWVSNISSSGSSTYYADSVKGRFTISRDNSKNTLYLQMNSLRAEDTAVYYCARYWGTPYLMQFDNWGQGTLVTVSS
VL: DIALTQPASVSGSPGQSITISCTGTSSDVGGYNSVSWYQQHPGKAPKLMIYSVSSRPSGVSNRFSGSKSGNTASLTISGLQAEDEADYYCYVFGGGTKLTVL
B3: mAb MOR05061 (antibody, IgG1, V domains shown)
VH: QVELVESGGGLVQPGGSLRLSCAASGFTFSSFGMSWVRQAPGKGLEWVSNISSSGSSTYYADSVKGRFTISRDNSKNTLYLQMNSLRAEDTAVYYCARYWGTPYLMQFDNWGQGTLVTVSS
VL: DIALTQPASVSGSPGQSITISCTGTSSDVGGYNSVSWYQQHPGKAPKLMIYSVSSRPSGVSNRFSGSKSGNTASLTISGLQAEDEADYYCSSYVFGGGTKLTVL
B4: mAb MOR05032 (antibody, IgG1, V domains shown)
VH: QVELVQSGAEVKKPGSSVKVSCKASGGTFSSNYISWVRQAPGQGLEWMGGIIPIFGHANYAQKFQGRVTITADESTSTAYMELSSLRSEDTAVYYCARSKKGMYGGWTYPLMMFDLWGQGTLVTVSS
VL: DIVLTQSPATLSLSPGERATLSCRASQSVSSNYLAWYQQKPGQAPRLLIYYASRRATGVPARFSGSGSGTDFTLTISSLEPEDFAYYCQQNPFTFGQGTKVEIK
B5: mAb MOR05031 (antibody, IgG1, V domains shown)
VH: QVELVQSGAEVKKPGSSVKVSCKASGGTFSSNYISWVRQAPGQGLEWMGGIIPIFGHANYAQKFQGRVTITADESTSTAYMELSSLRSEDTAVYYCARSKKGMYGGWTYPLMMFDLWGQGTLVTVSS
VL: DIVLTQSPATLSLSPGERATLSCRASQSVSSNYLAWYQQKPGQAPRLLIYYASRRATGVPARFSGSGSGTDFTLTISSLEPEDFAYYCQQTPFTFGQGTKVEIK
B6: mAb MOR05028 (antibody, IgG1, V domains shown)
VH: QVELVQSGAEVKKPGSSVKVSCKASGGTFSNYAISWVRQAPGQGLEWMGGIIPFGYAQKFQGRVTITADESTSTAYMELSSLRSEDTAVYYCARDIYAGMDVWGQGTLVTVSS
VL: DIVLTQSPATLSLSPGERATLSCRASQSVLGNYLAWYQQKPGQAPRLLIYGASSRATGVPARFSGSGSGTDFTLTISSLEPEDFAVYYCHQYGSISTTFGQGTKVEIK
B7: mAb MOR05036 (antibody, IgG1, V domains shown)
VH: QVELVQSGAEVKKPGSSVKVSCKASGGTFSSNYISWVRQAPGQGLEWMGIPFGAYAQKFQGRVTITADESTSTAYMELSSLRSEDTAVYYCARSKKGMYGGWTYPLMMFDLWGQGTLVTVSS
VL: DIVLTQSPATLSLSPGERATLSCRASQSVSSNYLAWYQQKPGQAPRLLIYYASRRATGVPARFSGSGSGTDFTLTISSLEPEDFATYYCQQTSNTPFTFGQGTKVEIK
B8: mAb MOR05034 (antibody, IgG1, V domains shown)
VH: QVELVQSGAEVKKPGSSVKVSCKASGGTFSSNYISWVRQAPGQGLEWMGIPFGAYAQKFQGRVTITADESTSTAYMELSSLRSEDTAVYYCARSKKGMYGGWTYPLMMFDLWGQGTLVTVSS
VL: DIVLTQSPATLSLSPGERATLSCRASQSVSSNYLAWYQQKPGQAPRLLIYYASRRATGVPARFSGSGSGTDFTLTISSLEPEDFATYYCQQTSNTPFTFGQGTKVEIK
B9: mAb MOR05037 (antibody, IgG1, V domains shown)
VH: QVELVQSGAEVKKPGSSVKVSCKASGGTFSSNYISWVRQAPGQGLEWMGIPFGAYAQKFQGRVTITADESTSTAYMELSSLRSEDTAVYYCARSKKGMYGGWTYPLMMFDLWGQGTLVTVSS
VL: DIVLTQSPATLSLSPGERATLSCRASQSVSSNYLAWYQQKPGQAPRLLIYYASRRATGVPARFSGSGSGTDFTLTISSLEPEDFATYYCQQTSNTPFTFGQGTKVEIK
B10: mAb MOR05033 (antibody, IgG1, V domains shown)
VH: QVELVQSGAEVKKPGSSVKVSCKASGGTFSSNYISWVRQAPGQGLEWMGIIPGAYAQKFQGRVTITADESTSTAYMELSSLRSEDTAVYYCARSKKGMYGGWTYPLMMFDLWGQGTLVTVSS
VL: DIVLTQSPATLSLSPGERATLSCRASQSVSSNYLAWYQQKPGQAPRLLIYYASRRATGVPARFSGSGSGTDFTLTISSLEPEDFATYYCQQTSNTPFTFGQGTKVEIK
B11: mAb MOR05056 (antibody, IgG1, V domains shown)
VH: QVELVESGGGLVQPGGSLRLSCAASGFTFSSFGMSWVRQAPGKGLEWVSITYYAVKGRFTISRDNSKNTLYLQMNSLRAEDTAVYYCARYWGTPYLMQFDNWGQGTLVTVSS
VL: DIALTQPASVSGSPGQSITISCTGTSSDVGGYNSVSWYQQHPGKAPKLMIYSVSSRPSGVSNRFSGSKSGNTASLTISGLQAEDEADYYCSSYDTNKPLVVFGGGTKLTVL
B12: mAb MOR05039 (antibody, IgG1, V domains shown)
VH: QVELVESGGGLVQPGGSLRLSCAASGFTFSSFGMSWVRQAPGKGLEWVSNITYYASVKGRFTISRDNSKNTLYLQMNSLRAEDTAVYYCARYWGTPYLMQFDNWGQGTLVTVSS
VL: DIALTQPASVSGSPGQSITISCTGTSSDVGGYNSVSWYQQHPGKAPKLMIYSVSSRPSGVSNRFSGSKSGNTASLTISGLQAEDEADYYCSSYDTNKPLVVFGGGTKLTVL
B13: Fab MOR05046 (Fab, V domains shown)
VH: QVQLVQSGAEVKKPGESLKISCKGSGYSFSNYWIGWVRQMPGKGLEWMGIIDPVSSWTKYSPSFQGQVTISADKSISTAYLQWSSLKASDTAMYYCARWYYKPFDVWGQGTLVTVSS
VL: DIVLTQPPSVSGAPGQRVTISCTGSSSNIGSGYDVHWYQQLPGTAPKLLIYGNSKRPSGVPDRFSGSKSGTSASLAITGLQSEDEADYYCSSWTPSSVVFGGGTKLTVL
notes: H-CDR2 matured from 4649
B14: Fab MOR04658 (Fab, V domains shown)
VH: QVQLVESGGGLVQPGGSLRLSCAASGFTFSSFGMSWVRQAPGKGLEWVSNISSSGSSTYYADSVKGRFTISRDNSKNTLYLQMNSLRAEDTAVYYCARYWGTPYLMQFDNWGQGTLVTVSS
VL: DIALTQPASVSGSPGQSITISCTGTSSDVGGYNSVSWYQQHPGKAPKLMIYSVSSRPSGVSNRFSGSKSGNTASLTISGLQAEDEADYYCSSYDTNKPLVVFGGGTKLTVL
notes: HuCAL Gold Fab, lambda
B15: Fab MOR04649 (Fab, V domains shown)
VH: QVQLVQSGAEVKKPGESLKISCKGSGYSFSNYWIGWVRQMPGKGLEWMGIIDPSNSYTNYSPSFQGQVTISADKSISTAYLQWSSLKASDTAMYYCARWYYKPFDVWGQGTLVTVSS
VL: DIVLTQPPSVSGAPGQRVTISCTGSSSNIGSGYDVHWYQQLPGTAPKLLIYGNSKRPSGVPDRFSGSKSGTSASLAITGLQSEDEADYYCSSWTPSSVVFGGGTKLTVL
notes: HuCAL Gold Fab, lambda

The IC50 is the concentration that gives 50% inhibition.

The first assay deals with T1, recombinant human IL-23 (hrIL-23), …. In words: cell-based or functional assay.
As to B1, the “Inhibition of IL-17 production, IC50” value was 0.198 µg/mL.
In the case of B2, the “Inhibition of IL-17 production, IC50” value was 0.199 µg/mL.
Regarding B3, the “Inhibition of IL-17 production, IC50” value came out at 0.309 µg/mL.
Same read-out and setting: as for B4, the figure is 0.172 µg/mL; as for B5, 0.215 µg/mL; as for B6, 0.104 µg/mL.
Consider B7, for which the “Inhibition of IL-17 production, IC50” value was 0.17 µg/mL.
As to B8, the “Inhibition of IL-17 production, IC50” value turned out to be 0.185 µg/mL.
On the same count and under the same terms, as for B9, the figure is 0.336 µg/mL.
In the case of B10, the “Inhibition of IL-17 production, IC50” value stood at 0.283 µg/mL.
Take B11: the “Inhibition of IL-17 production, IC50” value was 0.092 µg/mL.
Still for that read-out and setting: in the case of B12 it was 0.161 µg/mL.

For another assay the target is unchanged. Description: IL-23/IL-23R competition assay.
B13: the IC50 is 0.03 nM.

Another assay deals with T2, recombinant human IL-12 (hrIL-12), …. In words: ELISA, antigen in solution to immobilized Fab.
For B14, the binding result is recorded as “no binding”.
Take B15: the binding result is listed as “no binding”.

The target in another assay is T3, IL-12 (R&D). Description: ELISA, antigen in solution to immobilized Fab.
Turning to B14, the binding result is given as “no binding”.
With B15, the binding result is on record as “no binding”.

The values above are taken from patent US20070218064A1 (published 2007).
